Results on five sequences are retold here after the supplement of paper PMC12455559.

± gives the standard deviation of the averaged measurements.

The nature of data set [1]: PET hydrolysis, aromatic products released after 48 h (umol product/mg enzyme); higher = more PET depolymerization activity. The method, boiled down:
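Candidate enzymes, made tagless by SUMO cleavage and purified on nickel beads, were added at 5 μg (50 μL) to 3.5 mg of either amorphous PET film or crystalline PET powder in 450 μL buffer. The sealed plates stood unshaken for 48 h at 40 or 60 °C. Activity on PET is the aromatic product found in the supernatant per mg enzyme, read at 260 and 280 nm against buffer blanks.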

A short description of data set [2]: melting temperature (DSF); higher = more thermostable. The method in brief:
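Values are melting temperatures from differential scanning fluorimetry. Candidate enzymes were expressed in E. coli C41(DE3), purified on nickel beads and freed by SUMO protease cleavage. In sealed PCR plates on a Bio-Rad CFX96, 45 μL enzyme (0 to 0.3 mg/mL) was combined with 5 μL 5X Sypro Orange. Fluorescence was recorded from 25 °C for 250 cycles, rising 0.3 °C per cycle at a ramp of 0.3 °C/s.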

Data set [3] in a line: purified protein yield per well (BCA); higher = higher soluble expression. The method, boiled down: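 Expression was done in E. coli C41(DE3), using 2 mL autoinduction cultures with 100 µg/mL kanamycin incubated at 37 °C for 2 h and at 18 °C for 40 h. Protein was purified on Ni-charged magnetic beads and released by SUMO protease cleavage. Yield of purified protein per well was measured with the Pierce Rapid Gold BCA kit; values below 25 ug (0.1 mg/mL) are below detection.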

The mark [4] stands for this setting: substrate: aFilm, 40 °C, pH 4.5.
Setting [5] is: substrate: aFilm, 40 °C, pH 5.5.
The mark [6] stands for this setting: substrate: aFilm, 40 °C, pH 6.5.
[7] abbreviates: substrate: aFilm, 40 °C, pH 7.5.
Setting [8] is: substrate: aFilm, 60 °C, pH 4.5.
Where [9] appears, read: substrate: aFilm, 60 °C, pH 5.5.
The mark [10] stands for this setting: substrate: aFilm, 60 °C, pH 6.5.
[11] abbreviates: substrate: aFilm, 60 °C, pH 7.5.
Where [12] appears, read: substrate: cryPow, 40 °C, pH 4.5.
Where [13] appears, read: substrate: cryPow, 40 °C, pH 5.5.
Setting [14] is: substrate: cryPow, 40 °C, pH 6.5.
The mark [15] stands for this setting: substrate: cryPow, 40 °C, pH 7.5.
Where [16] appears, read: substrate: cryPow, 60 °C, pH 4.5.
Where [17] appears, read: substrate: cryPow, 60 °C, pH 5.5.
Where [18] appears, read: substrate: cryPow, 60 °C, pH 6.5.
Where [19] appears, read: substrate: cryPow, 60 °C, pH 7.5.

With “ADNPYQRGPDPTRTSVAAVNGPFANTSVSVPTGYGFNGGRIYYPTDTSQGTFGAIAISPGYTALFSAELAWMGPWLASHGFVVIGIETNSRNDFDTARGTQLLAALDYLTQQSPVRDRVDPNRLAVSGHSMGGGGALSAAIRRSSLKAVVGIAPYSPSSNLANDRVPTMVFSGQADTVVTPSYATGLYNSLPATTESVYLEVAGADHGFMVGRSNPVMIRTMLPFVKMFIDNDTRYSQFLCPLLDSSGVVTYRSTCPLLPPAPTPSNTGTTPPTTPPVTPTTPPSSASEIVGVQSGRCIDVPNASRNNGTRVQLYDCNRQANQSWTYTSGKQLQVYGNMCLDAAGSGNGAAVQIYSCHSQTNQQWNVNSNGTISGVQSGRCLDVWSTANGAQIQLYDCHGGANQRFNLVPRT [ESM058]”, the PET hydrolysis in data set [1] (setting [4]), in data set [1] (setting [5]), in data set [1] (setting [6]), in data set [1] (setting [7]), in data set [1] (setting [8]) and in data set [1] (setting [9]) was less than 3 each time. Further, the PET hydrolysis was less than 3 in data set [1] (setting [10]); less than 3 in data set [1] (setting [11]); 5.5 ± 0.71 in data set [1] (setting [12]); 12.5 ± 0.71 in data set [1] (setting [13]); 11 in data set [1] (setting [14]); 4.5 ± 0.71 in data set [1] (setting [15]). The PET hydrolysis in data set [1] (setting [16]), in data set [1] (setting [17]), in data set [1] (setting [18]) and in data set [1] (setting [19]) was less than 3 in each case. The sequence further came in with a melting temperature in data set [2] of 59.5 C. In data set [3], the “purified protein yield per well” value was 281 µg.
Turning to “ADNPYQRGPDPTRTSVATENGPFANTSVSVPTGYGFNGGRIYYPTDTSQGTFGAIAISPGYTALFSAELAWMGPWLASHGFVVIGIETNSRNDFDTARGTQLLAALDYLTQQSPVRDRVDPTRLAVAGHSMGGGGALSAATRRSSLKAAVGIAPYSPSSNLANDRVPTMIFSGQADTVVTPSYATSLYNSLPSTTESIYLEVAGADHGFMVGRSNPVMIRTMLPFLKMFIDNDARYSQFLCPLLDSSGVVTSRSTCPLLPSTPTTPPTDPPTDPPTNPPGSANEIVGTQSGRCVDVPNAATTNGTRVQLYTCNKQTNQAWTYTSGKQLQVYGTMCLDAAGSGNGAAVQIYSCHSQTNQQWNVNSNGTISNVQSGRCLDVWSTSNGAQIQLYDCHGQTNQQFRLAALGGGTQTPTPTPTTPPPTGGACDLPSSYRWSSTG [ESM143]”, the PET hydrolysis in data set [1] (setting [12]), in data set [1] (setting [13]), in data set [1] (setting [14]), in data set [1] (setting [15]), in data set [1] (setting [16]) and in data set [1] (setting [17]) was less than 3 in each case. Moreover, the PET hydrolysis in data set [1] (setting [18]) and in data set [1] (setting [19]) was less than 3 each time. In data set [2], the melting temperature turned out to be 55.9 C. In data set [3], the “purified protein yield per well” value turned out to be 55.9 µg.
“ADNPYQRGPDPTRTSVATERGPFANTSVSVPSGYGFNGGRIYYPTDTSQGTFGAIAISPGYTALFSAELAWMGPWLASHGFVVIGIETNSRNDFDTARGTQLLAALDYLTQQSPVRDRIDPNRLAVSGHSMGGGGALSAAMRRSSLKAVVGIAPYSPSSNLANDRVPTMIFSGQADTVVTPSYAMGLYNSIPAGTKSAYLEVAGGDHGFMVGRSNPVLIRTMLPFLKIFIDNDARYSQFLCPLLDNSGVVTYRSTCPFLPTTPTTPPPTG [ESM065]”: the PET hydrolysis in data set [1] (setting [12]) is 21; in data set [1] (setting [13]), 29; in data set [1] (setting [14]), 7; in data set [1] (setting [15]), less than 3; in data set [1] (setting [16]), less than 3; in data set [1] (setting [17]), 4. In addition, the PET hydrolysis in data set [1] (setting [18]) and in data set [1] (setting [19]) was less than 3 throughout. The same sequence displayed a melting temperature in data set [2] of 67.9 C. The “purified protein yield per well” value in data set [3] is 250 µg.
As for “ADNPYQRGPDPTRTSVTAENGPFANTSVSVPTGYGFNGGRIYYPTDTSQGTFGAIAISPGYTALFSAELAWMGPWLASHGFVVIGIETNSRNDFDTARGTQLLAALDYLTQQSPIRDRVDPNRLAVAGHSMGGGGALSAASRRSSLRAVVGIAPYSPSSNLANDRVPTMIFSGQADTVVTPSYATGLYNSLPATTKSVYLEVAGADHGFMVGRSNPVMIRTMLPFVKMFIDNDARYSQFLCPLLDSSGVVTYRSTCPLLPSTPTTPTPTPTDPPTVPPGSANEIVGTQSGRCVDVPNASRNNGTRVQLYDCNKQTNQAWTYTATKQLQVYGNMCLDAAGSGNGAAVQIYSCHSQTNQQWNVNSNGTISSVQSGRCLDAWSTTNGAQIQLYDCHGQTNQQFRLVSLAR [ESM161]”, the PET hydrolysis was 10 in data set [1] (setting [12]); 13 in data set [1] (setting [13]); 21 in data set [1] (setting [14]); 6 in data set [1] (setting [15]); less than 3 in data set [1] (setting [16]); less than 3 in data set [1] (setting [17]). Besides, the PET hydrolysis in data set [1] (setting [18]) and in data set [1] (setting [19]) was less than 3 throughout. In data set [2], this sequence displayed a melting temperature of 63.1 C. Further, the “purified protein yield per well” value in data set [3] was determined as 137 µg.
Take “ADNPYQRGPDPTRTSVTAVNGPFANTSVSVPTGHGFNGGRIYYPTDTSQGTFGAIAISPGYTALFSAELAWMGPWLASHGFVVIGIETNSRNDFDTARGTQLLAALDYLTQQSPVRDRVDPSRLAVSGHSMGGGGALSAAMRRASLKAVVGITPYSPSSNLANDRVPTMIISGQADTVVTPSYALGLYNSIPATTESVYLEVAGGDHGFMVGRSNPVLVRTMLPFLKMFIDNDTRYSQFLCPLLDNSGVVTYRSTCPLLPTDPTTPPTGTPTPTPTTPAPTTPPPTTPPGSASEIRGTQSNRCIDVPNASRNNGTRVQLYDCNRQTNQAWTYTANKQLQVYGNMC [ESM106]”: the PET hydrolysis was less than 3 in data set [1] (setting [4]); 1.5 ± 2.1 in data set [1] (setting [5]); 3.5 ± 0.71 in data set [1] (setting [6]); less than 3 in data set [1] (setting [7]); less than 3 in data set [1] (setting [8]); less than 3 in data set [1] (setting [9]). In addition, the PET hydrolysis is less than 3 in data set [1] (setting [10]); less than 3 in data set [1] (setting [11]); 9 ± 4.2 in data set [1] (setting [12]); 24 ± 5.7 in data set [1] (setting [13]); 28 ± 2.8 in data set [1] (setting [14]); 19 ± 1.4 in data set [1] (setting [15]). Further, the PET hydrolysis is less than 3 in data set [1] (setting [16]), 2 ± 2.8 in data set [1] (setting [17]), 4.5 ± 0.71 in data set [1] (setting [18]) and less than 3 in data set [1] (setting [19]). Further, the melting temperature in data set [2] is 62.2 C. Also, in data set [3], the “purified protein yield per well” value was determined as 392 µg.
